Measurements published in patent US20110289632.

Molecular target: 3-ketomyristoyl-ACP (enzymatically prepared from ShACP)

B1: ShMKS1 (methylketone synthase 1 from Solanum habrochaites f glabratum), recombinant, His-tagged (protein)
chain: MEKSMSPFVKKHFVLVHTAFHGAWCWYKIVALMRSSGHNVTALDLGASGINPKQALQIPNFSDYLSPLMEFMASLPANEKIILVGHALGGLAISKAMETFPEKISVAVFLSGLMPGPNIDATTVCTKAGSAVLGQLDNCVTYENGPTNPPTTLIAGPKFLATNVYHLSPIEDLALATALVRPLYLYLAEDISKEVVLSSKRYGSVKRVFIVATENDALKKEFLKLMIEKNPPDEVKEIEGSDHVTMMSKPQQLFTTLLSIANKYK
**Q.** How did the “amount of 2-tridecanone formed (in vitro thioesterase activity assay, direct hexane extraction, GC-MS)” value turn out when B1 was run?
**A.** slightly higher, but not significantly so (t test, p=0.062, α=0.05), than the amount found in the buffer-incubated sample treated with acid and heat
